Among the data in article PMC9987375 are PLA dots per cell (12 and 24 h.p.i.) (PLA dots per cell), PLA dots per cell (18 h.p.i.) (PLA dots per cell) and PLA dots per cell (mean, 18 h.p.i.) (PLA dots per cell) values, retold here.

Assay [1] concerns the target cytoplasmic dynein-1 heavy chain, naturally occurring in Vero cells (African green monkey (endogenous in Vero)). The assay is described as follows: proximity ligation; Vero cells infected with ZIKV MR766 at MOI 1, fixed at 12 and 24 h.p.i.; mouse monoclonal anti-E and rabbit polyclonal anti-NTDyn.
Assay [2] shares this target. Kind of assay: proximity ligation; Vero cells infected with ZIKV MR766 at MOI 1, fixed at 18 h.p.i.; mouse monoclonal anti-E and rabbit polyclonal anti-NTDyn; PLA dots counted in 100 cells.

“Zika virus (ZIKV) envelope protein (E), MR766 strain (natural protein)” yielded a PLA dots per cell (12 and 24 h.p.i.) (PLA dots per cell) in assay [1] of less than 1. In assay [2], this substance showed a PLA dots per cell (18 h.p.i.) (PLA dots per cell) greater than 6 and a PLA dots per cell (mean, 18 h.p.i.) (PLA dots per cell) of 2.9.
